Measurements published in article PMC3001473 (PLoS ONE, 2010).

Target: LcrV (V antigen) of Yersinia pestis (Yersinia pestis, UniProt P0C7U7 1-326)
Assay: SPR; Biacore 3000; […]; HBS-P pH 7.4; […]
Details: both partners purified

Chain of LcrV (V antigen) of Yersinia pestis (P0C7U7 whole entry): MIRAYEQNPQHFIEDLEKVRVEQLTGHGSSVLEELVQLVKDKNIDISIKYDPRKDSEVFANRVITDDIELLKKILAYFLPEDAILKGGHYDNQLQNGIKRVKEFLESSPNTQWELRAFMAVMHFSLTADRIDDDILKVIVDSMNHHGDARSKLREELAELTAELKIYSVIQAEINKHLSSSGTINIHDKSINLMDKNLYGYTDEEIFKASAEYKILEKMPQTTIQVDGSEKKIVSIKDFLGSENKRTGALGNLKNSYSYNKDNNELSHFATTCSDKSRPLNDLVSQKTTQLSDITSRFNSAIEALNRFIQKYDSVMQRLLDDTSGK

B1: wild-type human interferon-gamma (ligand, UniProt P01579 24-166, looked up)
chain: QDPYVKEAENLKKYFNAGHSDVADNGTLFLGILKNWKEESDRKIMQSQIVSFYFKLFKNFKDDQSIQKSVETIKEDMNVKFFNSNKKKRDDFEKLTNYSVTDLNVQRKAIHELIQVMAELSPAAKTGKRKRSQMLFRGRRASQ
notes: also called IFNγ; IFNγwt
B1 was tested, and the Kd was 32 nM.
